# Article PMC3887193
# Target: HLA-DRα (human)
# Conditions: scale: % of surface expression with wild type Ii
substance,measurement,value
Ii M91G mutant (natural protein),"cell surface expression of DRA.DPB1*0401 co-expressed with Ii M91G (flow cytometry, mAb 2.06)",60
